From the supplement of paper PMC10126150
± gives the standard deviation of the averaged measurements.

Tested on: ATP
Test: switch fluorescence ratio, 500 uM ATP over buffer (Cy3 cluster intensity, sum of 5 cycles each) (fold (ratio)); higher = stronger signal-on switching upon ATP binding; sequences stand for … in TCGTCGGCAGCGTCAGATGTGTATAAGAGACAGTTTTTTTTTTTTTTTTTTTTTTTTT…TC
Conditions: aptamer strand: ATP DNA aptamer (quencher-CACCTGGGGGAGTATTGCGGAGGAAGG + anchor), 100 nM annealed; ATP concentration: 500 uM
Procedure, shortened: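 The fluorescence ratio divides summed target-cycle Cy3 intensity by summed buffer-cycle Cy3 intensity for each cluster and is averaged per switch-domain sequence. Cy3-labelled switching-strand clusters on a modified Illumina MiSeq flow-cell were annealed to 100 nM quencher-labelled ATP aptamer, then imaged in selection buffer and again after 15 min with 500 uM ATP at 22 °C. Five such cycles were run, with NaOH stripping and re-annealing between them, and clusters outside 100-1000 RFU were excluded.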
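Note: ATP exposure 15 min at 22 °C before imaging.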

Sequence	switch fluorescence ratio
GTAGTTGTGG	1.01 ± 0.014
TTTCGAGGCT	0.976 ± 0.019
TGAGCCTGCT	0.98 ± 0.012
GGTAACAGTG	1.07 ± 0.085
GAGATCCATG	1.01 ± 0.038
GGCGTTGGGT	0.9929 ± 0.0096
GTAATCGATT	1.07 ± 0.022
ATATAGGGTT	1.04 ± 0.038
AGGGGGGTCA	0.976 ± 0.032
AGTTAGGAAA	1.02 ± 0.032
TTTTTCTAAA	0.9834 ± 0.0074
AAAAGAATAT	1 ± 0.019
TCGGAGGGGA	1 ± 0.02
CGGGGGAGCA	1.01 ± 0.017
ATAACGAGTC	1.04 ± 0.15
TGGTATGTGA	1.01 ± 0.032
AATCGGATTG	1 ± 0.025
GGGGTGGGAA	0.9795 ± 0.0094
GATGTGTTTT	0.974 ± 0.02
GGGTTGCTTT	1 ± 0.024
AGTTGGCGGA	0.999 ± 0.024
AGCTTCAGTC	1 ± 0.03
TAAATTTATA	0.992 ± 0.021
TCGGCGGTCT	0.999 ± 0.025
TTAGGGACGC	1.08 ± 0.025
GCTTTTGGCC	0.971 ± 0.02

Sequence	switch fluorescence ratio
TTTATACCTT	1.07 ± 0.1
AGTTGGGATC	1.036 ± 0.008
AGAGGGACAT	1.09 ± 0.1
CTGGGTATAG	1.02 ± 0.032
GGGTTTTAAG	1 ± 0.021
GCAGGCACGG	0.976 ± 0.028
AGGTTTTGGG	0.979 ± 0.022
CTATTGGCAA	1.06 ± 0.022
TTTGGGCCTC	0.9842 ± 0.0021
AGAGTGGGGT	0.962 ± 0.033
GTATAAGTTT	0.998 ± 0.017
TAAAATGTTA	0.985 ± 0.0063
GGGAAAGATT	1.005 ± 0.01
GCGTTCGGGA	0.984 ± 0.021
TCCCCGTCGA	1.88 ± 1.2
ATTTTTTCGA	0.981 ± 0.014
ACTCGACAGG	1.8 ± 0.013
GCCTCGGGGG	0.953 ± 0.021
GAAGCTGAAT	1.01 ± 0.0029
TTGTAGGAGG	0.9811 ± 0.0032
CCGGGGGAAG	1.04 ± 0.035
GGGGCTGGTA	1.003 ± 0.0043
TTTAAAGATG	0.999 ± 0.018
CAGCCCTAGG	1.09 ± 0.053
TACGCTGCAG	1.05 ± 0.049
GGGGGTAACT	1 ± 0.034

Sequence	switch fluorescence ratio
TATGGGGTTT	1.01 ± 0.031
TGGGAAATCG	1.03 ± 0.014
TTTGGGTGAG	0.993 ± 0.023
GCTTTCCTTA	0.991 ± 0.04
TGGTCGCGTT	0.988 ± 0.043
TTTAGAAATA	1.05 ± 0.022
CGGATCTGAG	1.01 ± 0.078
GGGGTCGGCT	0.974 ± 0.077
GGTTCGTCAC	1.11 ± 0.1
AGGCGGTTTG	0.985 ± 0.034
GGAAACAGGA	1.02 ± 0.05
TTCGGACCAA	1.46 ± 0.096
CAGTGGAGCG	0.964 ± 0.058
CGTACAGTGG	1.02 ± 0.046
AATCGTATAG	0.9817 ± 0.0042
GGTGGGGGGC	0.978 ± 0.048
CCGGTACTTT	1.05 ± 0.016
TGATATTGG	0.971 ± 0.045
ATTTGTTAGA	1.03 ± 0.021
TGGTATGCGC	0.9971 ± 0.0047
TGTTATATAG	1.01 ± 0.033
GAAAGGGGTA	1.01 ± 0.046
GGGGAGGAGG	0.986 ± 0.0087
CAAGGTAGGG	0.968 ± 0.019
AGTGGATTCT	1.004 ± 0.0022
CGGTGGTCCA	0.997 ± 0.017

Sequence	switch fluorescence ratio
ATGGACACGC	1.03 ± 0.042
ATGGAGTGTG	0.989 ± 0.02
ATTGACATAT	1.054 ± 0.0046
TTGGAGGAAA	1.09 ± 0.13
GCCCTTTTAC	1.19 ± 0.074
CGCATAGGGT	1.13 ± 0.012
GATTAAAAGG	1.017 ± 0.0067
AGTCCGTCGT	1.026 ± 0.0068
TATTTGCTTT	1.02 ± 0.015
AAATTTATTT	0.9932 ± 0.0038
TTAGGTAGGG	0.988 ± 0.028
GTGTAAAGTT	0.972 ± 0.021
TGGAGGGTTG	1 ± 0.026
GGTGGAACAG	1.02 ± 0.028
GATGGGGTTT	1 ± 0.014
TTCATTTTGA	0.967 ± 0.015
CAATTGTACT	0.994 ± 0.013
GGGGTAACGG	0.987 ± 0.036
GGTTAACGGA	1 ± 0.016
ATAGTGGCGC	0.997 ± 0.016
CGTTGGGTCC	0.987 ± 0.029
TTGAAACATT	1.01 ± 0.024
AAGTTAAGCC	1.01 ± 0.047
GCTTAAGTTA	1 ± 0.057
GGGTAAATCT	1.04 ± 0.026
TGCCAGGATT	1.25 ± 0.42

Sequence	switch fluorescence ratio
ATGGGTGCCT	1.03 ± 0.023
TTTTTCCCAT	1.03 ± 0.014
CTGGTGTCAC	1.01 ± 0.029
ATTTACCGAA	1.05 ± 0.019
TGTTAATGTT	1 ± 0.029
TGTAGGTAAA	0.997 ± 0.029
TGGGGCCCCG	1 ± 0.013
GGGTAGAAAG	0.97 ± 0.013
ACGGTTGGT	1.02 ± 0.012
CAGAAGCGGA	1.19 ± 0.051
ATCATAGCGG	1 ± 0.015
TTTTTAATCA	0.987 ± 0.014
CGCCCCTGAA	0.997 ± 0.017
TCCGTTGATA	1.165 ± 0.01
TTAAGGGTTG	1.02 ± 0.019
CCAGGTCGAC	1.02 ± 0.063
AATAATAAGA	1 ± 0.017
GTGGGGGTAG	0.99 ± 0.032
TTAAATAGCG	0.982 ± 0.036
TGTGAGTTAG	1 ± 0.025
GGTTGCGGGG	0.9855 ± 0.0082
TGTACGTAGG	1.24 ± 0.21
GGCCTCTGCT	1.02 ± 0.02
AGATGCCGAC	1.02 ± 0.054
ACGGGGTAAT	1.22 ± 0.35
GGAGGATGAG	1.01 ± 0.013

Sequence	switch fluorescence ratio
AGTTCGGTTT	0.9581 ± 0.0039
AATATGTCGG	1 ± 0.021
TAATGCTTAT	1.06 ± 0.12
TAGATGCCAG	1.07 ± 0.039
ACGAATGTGC	1.022 ± 0.0097
ACAGTTTTGC	0.985 ± 0.02
TCGGGTATTC	1.06 ± 0.14
TGCCGAGGTG	1.38 ± 0.12
CACGTTACTG	1.66 ± 0.12
CGTGTATGTG	0.969 ± 0.043
CGTAGCGTCC	1.13 ± 0.019
AATAGTTTAT	0.986 ± 0.022
AGTTTTGAAG	0.9906 ± 0.0096
TTTAGGTAGT	0.975 ± 0.021
ATACCTGAG	1.53 ± 0.057
TTTCGCGATT	2.32 ± 1.7
TCTTACAATA	1.14 ± 0.091
TTTAAAATCT	1.016 ± 0.0092
TGACTGTATT	1.14 ± 0.042
TGCGGAAAAC	1.72 ± 0.82
CTGACTTCAT	1.0521 ± 0.00045
CGAGGTGTAG	0.98 ± 0.022
TTGGGAGTGT	0.994 ± 0.031
